Source: the supplement of paper PMC5998384

How the values were obtained:
HeLa Kyoto [1] = test: solubility in G1/S (NP-40 vs SDS abundance) (log2 ratio); higher = more soluble; conditions: cell cycle stage: G1/S
HeLa Kyoto [2] = test: melting temperature (median over replicates), in situ; higher = more thermally stable
HeLa Kyoto [3] = test: solubility change mitosis vs G1/S (difference of NP-40 vs SDS log2 ratios) (log2 ratio difference); higher = more soluble in mitosis
HeLa Kyoto [4] = test: thermal stability score vs G1/S (z-score of summed log2 fold changes over temperatures); higher = more thermally stable than in G1/S
[5] = cell cycle stage: early G1 (4.5 h after nocodazole release)
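For melting temperature (median over replicates), in situ in this document: HeLa Kyoto cells synchronized by double thymidine or nocodazole block, proteins quantified by TMT10plex mass spectrometry, three independent biological replicates.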
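For solubility change mitosis vs G1/S (difference of NP-40 vs SDS log2 ratios) in this document: synchronized HeLa Kyoto cells (double thymidine block for G1/S, nocodazole release for mitosis), protein amounts in NP-40 versus SDS lysates quantified by mass spectrometry, three biological replicates.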
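For solubility in G1/S (NP-40 vs SDS abundance) in this document: HeLa Kyoto cells arrested at G1/S by double thymidine block, proteins quantified by TMT10plex mass spectrometry in mild NP-40 versus SDS extracts, three biological replicates.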
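For thermal stability score vs G1/S (z-score of summed log2 fold changes over temperatures) in this document: synchronized HeLa Kyoto cells, proteins quantified by TMT10plex mass spectrometry, three biological replicates, mitosis taken 0.5 h after nocodazole release, G1/S directly after double thymidine block.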

| Sequence | solubility in G1/S (log2) (HeLa Kyoto [1]) | melting temperature (HeLa Kyoto [2]; cell cycle stage: G1/S) [°C] | melting temperature (HeLa Kyoto [2]; cell cycle stage: mitosis) [°C] | solubility change mitosis (log2) (HeLa Kyoto [3]) | thermal stability score (HeLa Kyoto [4]; [5]) | thermal stability score (HeLa Kyoto [4]; cell cycle stage: mitosis) |
| --- | --- | --- | --- | --- | --- | --- |
| MAAPGPALCLFDVDGTLTAPRQKITKEMDDFLQKLRQKIKIGVVGGSDFEKVQEQLGNDVVEKYDYVFPENGLVAYKDGKLLCRQNIQSHLGEALIQDLINYCLSYIAKIKLPKKRGTFIEFRNGMLNVSPIGRSCSQEERIEFYELDKKENIRQKFVADLRKEFAGKGLTFSIGGQISFDVFPDGWDKRYCLRHVENDGYKTIYFFGDKTMPGGNDHEIFTDPRTMGYSVTAPEDTRRICELLFS [PMM2] | 0.526 | 53 | 53.3 | -0.0066 | 12.5 | 3.25 |
| MAAPGSCALWSYCGRGWSRAMRGCQLLGLRSSWPGDLLSARLLSQEKRAAETHFGFETVSEEEKGGKVYQVFESVAKKYDVMNDMMSLGIHRVWKDLLLWKMHPLPGTQLLDVAGGTGDIAFRFLNYVQSQHQRKQKRQLRAQQNLSWEEIAKEYQNEEDSLGGSRVVVCDINKEMLKVGKQKALAQGYRAGLAWVLGDAEELPFDDDKFDIYTIAFGIRNVTHIDQALQEAHRVLKPGGRFLCLEFSQVNNPLISRLYDLYSFQVIPVLGEVIAGDWKSYQYLVESIRRFPSQEEFKDMIEDAGFHKVTYESLTSGIVAIHSGFKL [COQ5] | -0.0892 | 54.4 | 56.3 | 0.0212 | -1.07 | -0.586 |
| MAAPILRSFSWGRWSGTLNLSVLLPLGLRKAHSGAQGLLAAQKARGLFKDFFPETGTKIELPELFDRGTASFPQTIYCGFDPTADSLHVGHLLALLGLFHLQRAGHNVIALVGGATARLGDPSGRTKEREALETERVRANARALRLGLEALAANHQQLFTDGRSWGSFTVLDNSAWYQKQHLVDFLAAVGGHFRMGTLLSRQSVQLRLKSPEGMSLAEFFYQVLQAYDFYYLFQRYGCRVQLGGSDQLGNIMSGYEFINKLTGEDVFGITVPLITSTTGAKLGKSAGNAVWLNRDKTSPFELYQFFVRQPDDSVERYLKLFTFLPLPEIDHIMQLHVKEPERRGPQKRLAAEVTKLVHGREGLDSAKRCTQALYHSSIDALEVMSDQELKELFKEAPFSEFFLDPGTSVLDTCRKANAIPDGPRGYRMITEGGVSINHQQVTNPESVLIVGQHILKNGLSLLKIGKRNFYIIKWLQL [YARS2] | 0.027 | 48.8 | 48.2 | -0.0352 | 0.871 | 4.36 |
| MAAPLIPLSQQIPTGNSLYESYYKQVDPAYTGRVGASEAALFLKKSGLSDIILGKIWDLADPEGKGFLDKQGFYVALRLVACAQSGHEVTLSNLNLSMPPPKFHDTSSPLMVTPPSAEAHWAVRVEEKAKFDGIFESLLPINGLLSGDKVKPVLMNSKLPLDVLGRVWDLSDIDKDGHLDRDEFAVAMHLVYRALEKEPVPSALPPSLIPPSKRKKTVFPGAVPVLPASPPPKDSLRSTPSHGSVSSLNSTGSLSPKHSLKQTQPTVNWVVPVADKMRFDEIFLKTDLDLDGYVSGQEVKEIFMHSGLTQNLLAHIWALADTRQTGKLSKDQFALAMYFIQQKVSKGIDPPQVLSPDMVPPSERGTPGPDSSGSLGSGEFTGVKELDDISQEIAQLQREKYSLEQDIREKEEAIRQKTSEVQELQNDLDRETSSLQELEAQKQDAQDRLDEMDQQKAKLRDMLSDVRQKCQDETQMISSLKTQIQSQESDLKSQEDDLNRAKSELNRLQQEETQLEQSIQAGRVQLETIIKSLKSTQDEINQARSKLSQLHESRQEAHRSLEQYDQVLDGAHGASLTDLANLSEGVSLAERGSFGAMDDPFKNKALLFSNNTQELHPDPFQTEDPFKSDPFKGADPFKGDPFQNDPFAEQQTTSTDPFGGDPFKESDPFRGSATDDFFKKQTKNDPFTSDPFTKNPSLPSKLDPFESSDPFSSSSVSSKGSDPFGTLDPFGSGSFNSAEGFADFSQMSKPPPSGPFTSSLGGAGFSDDPFKSKQDTPALPPKKPAPPRPKPPSGKSTPVSQLGSADFPEAPDPFQPLGADSGDPFQSKKGFGDPFSGKDPFVPSSAAKPSKASASGFADFTSVS [EPS15L1] | 0.43 | 49.6 | 51.2 | -0.0276 | 0.244 | 1.69 |
| MAAQCVTKVALNVSCANLLDKDIGSKSDPLCVLFLNTSGQQWYEVERTERIKNCLNPQFSKTFIIDYYFEVVQKLKFGVYDIDNKTIELSDDDFLGECECTLGQIVSSKKLTRPLVMKTGRPAGKGSITISAEEIKDNRVVLFEMEARKLDNKDLFGKSDPYLEFHKQTSDGNWLMVHRTEVVKNNLNPVWRPFKISLNSLCYGDMDKTIKVECYDYDNDGSHDLIGTFQTTMTKLKEASRSSPVEFECINEKKRQKKKSYKNSGVISVKQCEITVECTFLDYIMGGCQLNFTVGVDFTGSNGDPRSPDSLHYISPNGVNEYLTALWSVGLVIQDYDADKMFPAFGFGAQIPPQWQVSHEFPMNFNPSNPYCNGIQGIVEAYRSCLPQIKLYGPTNFSPIINHVARFAAAATQQQTASQYFVLLIITDGVITDLDETRQAIVNASRLPMSIIIVGVGGADFSAMEFLDGDGGSLRSPLGEVAIRDIVQFVPFRQFQNAPKEALAQCVLAEIPQQVVGYFNTYKLLPPKNPATKQQKQ [CPNE3] | -0.0447 | 50.8 | 50.8 | -0.146 | 1.91 | -0.0585 |
